According to patent US20230265151A1, “GIP/GLP1 CO-AGONIST COMPOUNDS” (priority 2020, published 2023):
Substitutions are numbered along the chain they refer to. *1 amine or outer side, *2 acyl side, *3 side chain or, on linkers, in order; H or OH if unused. Where no end group is shown, it is not given here. Side-chain parts run from the residue outwards. [ ]: non-standard residue; d: D form. The star is where a group is joined. αMePhe(2-F) = C[C@](N)(Cc1ccccc1F)C(=O)O; γGlu = O=C(O)[C@H](CCC(=O)[*:2])N[*:1]; C14 diacid = O=C(O)CCCCCCCCCCCCC(=O)*; αMeY = C[C@](N)(Cc1ccc(O)cc1)C(=O)O; αMeF = C[C@](N)(Cc1ccccc1)C(=O)O; αMeL = CC(C)C[C@](C)(N)C(=O)O; Orn = NCCC[C@H](N)C(=O)O; AEEA = NCCOCCOCC(=O)O; Aib = CC(C)(N)C(=O)O

T1: human GIP receptor (human, UniProt P48546 22-466)
T1 sequence (looked up): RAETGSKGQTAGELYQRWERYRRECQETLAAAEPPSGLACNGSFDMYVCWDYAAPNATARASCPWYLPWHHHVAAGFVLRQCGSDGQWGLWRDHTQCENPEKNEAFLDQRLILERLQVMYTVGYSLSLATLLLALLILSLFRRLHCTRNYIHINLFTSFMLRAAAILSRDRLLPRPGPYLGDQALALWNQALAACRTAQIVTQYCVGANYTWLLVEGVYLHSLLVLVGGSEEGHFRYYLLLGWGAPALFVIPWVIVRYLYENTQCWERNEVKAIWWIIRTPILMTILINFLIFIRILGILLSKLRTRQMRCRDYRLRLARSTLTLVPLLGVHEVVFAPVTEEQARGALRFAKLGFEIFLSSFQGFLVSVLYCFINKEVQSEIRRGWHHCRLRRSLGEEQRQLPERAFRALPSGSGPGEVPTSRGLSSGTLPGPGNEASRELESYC

B1: Example 11 (peptide)
peptide: YXEGTXTSDXSIXLDXKAQXEFIXXLIEGGKSSGAPPPS
modifications: Aib2, αMeF(2F)6, 4Pal10, αMeL13, Orn16, Aib20, D-Glu24, αMeY25, K17 and K31: K(AEEA-(γ-Glu)-CO-(CH2)12-CO2H), C-terminal NH2
B2: Example 120 (peptide)
peptide: B1 peptide with F22X, X24K, K31P
modifications: Aib2, αMeF(2F)6, Ac5c10, αMeL13, Orn16, Aib20, αMeF22, αMeY25, K17 and K24: K(AEEA2-(γ-Glu)-CO-(CH2)12-CO2H), C-terminal NH2
B3: Example 130 (peptide)
peptide: B1 peptide with X10K, K31P
modifications: Aib2, αMeF(2F)6, αMeL13, Orn16, Aib20, D-Glu24, αMeY25, K10 and K17: K(AEEA2-(γ-Glu)-(4-(4-tert-butylphenyl)butanoyl)), C-terminal NH2
B4: Example 117 (peptide)
peptide: B1 peptide with S11X, F22X, X24K, K31P
modifications: Aib2, αMeF(2F)6, 4Pal10, Aib11, αMeL13, Orn16, Aib20, αMeF22, αMeY25, K17 and K24: K(AEEA2-(γ-Glu)-CO-(CH2)12-CO2H), C-terminal NH2
B5: Example 116 (peptide)
peptide: B1 peptide with X24K, K31P
modifications: Aib2, αMeF(2F)6, Ac5c10, αMeL13, Orn16, Aib20, αMeY25, K17 and K24: K(AEEA2-(γ-Glu)-CO-(CH2)12-CO2H), C-terminal NH2
B6: Example 129 (peptide)
peptide: B1 peptide with E28K, K31P
modifications: Aib2, αMeF(2F)6, 4Pal10, αMeL13, Orn16, Aib20, D-Glu24, αMeY25, K17 and K28: K(AEEA2-(γ-Glu)-(10-(4-carboxyphenoxy)decanoyl)), C-terminal NH2
B7: Example 112 (peptide)
peptide: Y[Aib]EGT[αMePhe(2-F)]TSDK([AEEA-AEEA-γGlu-C14 diacid])SI[αMeL]LD[Orn]IAQ[Aib]E[αMeF]I[dE][αMeY]LIEGGK([AEEA-AEEA-γGlu-C14 diacid])SSGAPPPS-NH2
modifications: N-terminus assumed
SMILES: CC[C@H](C)[C@H](NC(=O)[C@H](CCCN)NC(=O)[C@H](CC(=O)O)NC(=O)[C@H](CC(C)C)NC(=O)[C@](C)(CC(C)C)NC(=O)[C@@H](NC(=O)[C@H](CO)NC(=O)[C@H](CCCCNC(=O)COCCOCCNC(=O)COCCOCCNC(=O)CC[C@H](NC(=O)CCCCCCCCCCCCC(=O)O)C(=O)O)NC(=O)[C@H](CC(=O)O)NC(=O)[C@H](CO)NC(=O)[C@@H](NC(=O)[C@](C)(Cc1ccccc1F)NC(=O)[C@@H](NC(=O)CNC(=O)[C@H](CCC(=O)O)NC(=O)C(C)(C)NC(=O)[C@@H](N)Cc1ccc(O)cc1)[C@@H](C)O)[C@@H](C)O)[C@@H](C)CC)C(=O)N[C@@H](C)C(=O)N[C@@H](CCC(N)=O)C(=O)NC(C)(C)C(=O)N[C@@H](CCC(=O)O)C(=O)N[C@@](C)(Cc1ccccc1)C(=O)N[C@H](C(=O)N[C@H](CCC(=O)O)C(=O)N[C@@](C)(Cc1ccc(O)cc1)C(=O)N[C@@H](CC(C)C)C(=O)N[C@H](C(=O)N[C@@H](CCC(=O)O)C(=O)NCC(=O)NCC(=O)N[C@@H](CCCCNC(=O)COCCOCCNC(=O)COCCOCCNC(=O)CC[C@H](NC(=O)CCCCCCCCCCCCC(=O)O)C(=O)O)C(=O)N[C@@H](CO)C(=O)N[C@@H](CO)C(=O)NCC(=O)N[C@@H](C)C(=O)N1CCC[C@H]1C(=O)N1CCC[C@H]1C(=O)N1CCC[C@H]1C(=O)N[C@@H](CO)C(N)=O)[C@@H](C)CC)[C@@H](C)CC
B8: Example 111 (peptide)
peptide: Y[Aib]EGT[αMePhe(2-F)]TSDK([AEEA-AEEA-γGlu-C14 diacid])SI[αMeL]LD[Orn]IAQ[Aib]E[αMeF]I[dE][αMeY]LIK([AEEA-AEEA-γGlu-C14 diacid])GGPSSGAPPPS-NH2
modifications: N-terminus assumed
SMILES: CC[C@H](C)[C@H](NC(=O)[C@H](CCCN)NC(=O)[C@H](CC(=O)O)NC(=O)[C@H](CC(C)C)NC(=O)[C@](C)(CC(C)C)NC(=O)[C@@H](NC(=O)[C@H](CO)NC(=O)[C@H](CCCCNC(=O)COCCOCCNC(=O)COCCOCCNC(=O)CC[C@H](NC(=O)CCCCCCCCCCCCC(=O)O)C(=O)O)NC(=O)[C@H](CC(=O)O)NC(=O)[C@H](CO)NC(=O)[C@@H](NC(=O)[C@](C)(Cc1ccccc1F)NC(=O)[C@@H](NC(=O)CNC(=O)[C@H](CCC(=O)O)NC(=O)C(C)(C)NC(=O)[C@@H](N)Cc1ccc(O)cc1)[C@@H](C)O)[C@@H](C)O)[C@@H](C)CC)C(=O)N[C@@H](C)C(=O)N[C@@H](CCC(N)=O)C(=O)NC(C)(C)C(=O)N[C@@H](CCC(=O)O)C(=O)N[C@@](C)(Cc1ccccc1)C(=O)N[C@H](C(=O)N[C@H](CCC(=O)O)C(=O)N[C@@](C)(Cc1ccc(O)cc1)C(=O)N[C@@H](CC(C)C)C(=O)N[C@H](C(=O)N[C@@H](CCCCNC(=O)COCCOCCNC(=O)COCCOCCNC(=O)CC[C@H](NC(=O)CCCCCCCCCCCCC(=O)O)C(=O)O)C(=O)NCC(=O)NCC(=O)N1CCC[C@H]1C(=O)N[C@@H](CO)C(=O)N[C@@H](CO)C(=O)NCC(=O)N[C@@H](C)C(=O)N1CCC[C@H]1C(=O)N1CCC[C@H]1C(=O)N1CCC[C@H]1C(=O)N[C@@H](CO)C(N)=O)[C@@H](C)CC)[C@@H](C)CC

The binders below were run against human GLP-1 receptor (human, UniProt P43220 24-463) (assay: cell-based or functional assay).

Binder	EC50, cAMP	Emax, cAMP
B1	0.511 nM	
B2	1.43 nM	
B3	0.204 nM	100%
B4	5.6 nM	98.2%
B5	0.197 nM	
B6	1.28 nM	
Y[Aib]EGT[αMePhe(2-F)]TSDV[Aib]I[αMeL]LD[Orn]K([AEEA-AEEA-γGlu-C14 diacid])AQ[Aib]E[αMeF]IK([AEEA-AEEA-γGlu-C14 diacid])[αMeF]LIEGGPSSGAPPPS-NH2 [Example 123]	0.508 nM	96.3%
Y[Aib]EGT[αMePhe(2-F)]TSDK([AEEA-AEEA-γGlu-C14 diacid])SI[αMeL]LD[Orn]IAQ[Aib]E[αMeF]IK([AEEA-AEEA-γGlu-C14 diacid])[αMeY]LIEGGPSSGAPPPS-NH2 [Example 110]	1.43 nM	98.8%
B7	2.26 nM	
Y[Aib]EGT[αMePhe(2-F)]TSDV[Aib]I[αMeL]LD[Orn]K([AEEA-AEEA-γGlu-C14 diacid])AQ[Aib]E[αMeF]IK([AEEA-AEEA-γGlu-C14 diacid])[αMeY]LIEGGPSSGAPPPS-NH2 [Example 119]	0.351 nM	99.4%
B8	2.28 nM	121%
Y[Aib]EGT[αMePhe(2-F)]TSDV[Aib]I[αMeL]LD[Orn]K([AEEA-AEEA-γGlu-C14 diacid])AQ[Aib]EFIK([AEEA-AEEA-γGlu-C14 diacid])[αMeY]LIEGGPSSGAPPPS-NH2 [Example 115]	0.16 nM	91.6%

These binders were tested against T1, human GIP receptor (assay: cell-based or functional assay).

Binder	EC50, cAMP	Emax, cAMP
B1	0.0135 nM	
B2	0.0866 nM	
B3	0.0266 nM	94.7%
B4	0.0352 nM	96.4%
B5	0.137 nM	115%
B6	0.0248 nM	
Y[Aib]EGT[αMePhe(2-F)]TSDV[Aib]I[αMeL]LD[Orn]K([AEEA-AEEA-γGlu-C14 diacid])AQ[Aib]E[αMeF]IK([AEEA-AEEA-γGlu-C14 diacid])[αMeF]LIEGGPSSGAPPPS-NH2 [Example 123]	0.101 nM	94.9%
Y[Aib]EGT[αMePhe(2-F)]TSDK([AEEA-AEEA-γGlu-C14 diacid])SI[αMeL]LD[Orn]IAQ[Aib]E[αMeF]IK([AEEA-AEEA-γGlu-C14 diacid])[αMeY]LIEGGPSSGAPPPS-NH2 [Example 110]	0.0417 nM	
B7	0.0229 nM	93.6%
Y[Aib]EGT[αMePhe(2-F)]TSDV[Aib]I[αMeL]LD[Orn]K([AEEA-AEEA-γGlu-C14 diacid])AQ[Aib]E[αMeF]IK([AEEA-AEEA-γGlu-C14 diacid])[αMeY]LIEGGPSSGAPPPS-NH2 [Example 119]	0.0863 nM	
B8	0.0202 nM	76.1%
Y[Aib]EGT[αMePhe(2-F)]TSDV[Aib]I[αMeL]LD[Orn]K([AEEA-AEEA-γGlu-C14 diacid])AQ[Aib]EFIK([AEEA-AEEA-γGlu-C14 diacid])[αMeY]LIEGGPSSGAPPPS-NH2 [Example 115]	0.103 nM	

The binders below were run against human glucagon receptor (human, UniProt P47871 26-477) (assay: cell-based or functional assay).

Binder	EC50, cAMP
B1	> 9950 nM
B2	> 9950 nM
B3	> 9950 nM
B4	> 9950 nM
B5	> 9950 nM
B6	> 9950 nM
Y[Aib]EGT[αMePhe(2-F)]TSDV[Aib]I[αMeL]LD[Orn]K([AEEA-AEEA-γGlu-C14 diacid])AQ[Aib]E[αMeF]IK([AEEA-AEEA-γGlu-C14 diacid])[αMeF]LIEGGPSSGAPPPS-NH2 [Example 123]	> 9950 nM
Y[Aib]EGT[αMePhe(2-F)]TSDK([AEEA-AEEA-γGlu-C14 diacid])SI[αMeL]LD[Orn]IAQ[Aib]E[αMeF]IK([AEEA-AEEA-γGlu-C14 diacid])[αMeY]LIEGGPSSGAPPPS-NH2 [Example 110]	> 9950 nM
B7	> 9950 nM
Y[Aib]EGT[αMePhe(2-F)]TSDV[Aib]I[αMeL]LD[Orn]K([AEEA-AEEA-γGlu-C14 diacid])AQ[Aib]E[αMeF]IK([AEEA-AEEA-γGlu-C14 diacid])[αMeY]LIEGGPSSGAPPPS-NH2 [Example 119]	> 9950 nM
B8	> 9950 nM
Y[Aib]EGT[αMePhe(2-F)]TSDV[Aib]I[αMeL]LD[Orn]K([AEEA-AEEA-γGlu-C14 diacid])AQ[Aib]EFIK([AEEA-AEEA-γGlu-C14 diacid])[αMeY]LIEGGPSSGAPPPS-NH2 [Example 115]	> 9950 nM
